Laboratory results taken from paper PMC11782559, “Innovative CDR grafting and computational methods for PD-1 specific nanobody design” (Frontiers in Bioinformatics, 2024).

Molecular target: T1, human PD-1 Fc recombinant protein (Homo sapiens, UniProt Q15116)
T1 construct: Programmed Cell Death Protein-1 (PD-1), human, bought as an Fc fusion; Ran at about 63 kDa in the blot; Surmise: the commercial product holds the extracellular domain of PD-1 fused to a human IgG1 Fc; The ELISA methods say only 'recombinant human PD-1'; also called recombinant human PD-1; Programmed Cell Death Protein-1; source: bought: Peprotech, Catalog # 310-40-1 MG
Assay: far-Western, overlay or dot blot; Western blot: PD-1 Fc (200 ng) separated on 12% SDS-PAGE (denatured), transferred to nitrocellulose, blocked with 5% milk in TBST, probed overnight at 4°C with 10 μg/mL purified nanobody, detected with anti-His tag HRP antibody
Details: both partners purified

T1 sequence (Q15116 25-170): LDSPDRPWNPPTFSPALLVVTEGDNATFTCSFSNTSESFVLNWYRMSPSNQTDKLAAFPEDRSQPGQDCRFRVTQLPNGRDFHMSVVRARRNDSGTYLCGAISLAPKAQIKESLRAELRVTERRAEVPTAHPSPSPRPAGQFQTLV

- binding result: binds
B1: designed PD-1-specific nanobody (Cemiplimab CDRs grafted onto Caplacizumab framework regions) (VHH)
VHH: EVQLVESGGGLVQPGGSLRLSCAASGFTFSNFGMGWFRQAPGKGRELVAAISGGGRDTYYPDSVEGRFTISRDNAKRMVYLQMNSLRAEDTAVYYCVKWGNIYFDYWGQGTQVTVSS
notes: CDRs of the Cemiplimab heavy chain grafted onto the framework regions of Caplacizumab; 117 residues, 12.5 kDa without tag; Gene inserted into pET-28a (+) at NdeI and XhoI; with His tag about 13.5 kDa; Surmise: this cloning usually gives an N-terminal His6 tag with a thrombin site from the vector; also called NB; designed nanobody; source: E. coli BL21 (DE3), pET-28a (+), purified (Ni-NTA, …)
